Test results published in US20250032576A1, “CNP Therapy” (BIOMARIN PHARMACEUTICAL INC., priority 2021, published 2025).
Several values for one entry are separate records, joined by “and”; a condition that tells them apart may be missing. Identical values can stand only once.

Test system: NPR2
Assay: cGMP catchpoint assay of NPR2 variants in transfected HEK293 cells treated with 20 nM CNP
Format: cell-based
Set-up: key to Lable: loss-of-function (LoF); Gain-of-function (GoF)
Details: for average phenotype: cGMP normalized to RedLuciferase and to WT = 1, HEK293, 20 nM CNP, 0.4 nM IBMX, at least 3 repeat experiments with 4 replicates each; for Lable: high-confidence variant class
Procedure: Described herein is an in-vitro assay (cGMP) to assess the activities of >260 NPR2 variants. NPR2 protein-altering variants have been identified in the UK Biobank study and described in Estrada et al. (Nat Commun. 2021 12 (1): 2224). NPR2-expression constructs were transfected into HEK293 cells and 3 days later cells were treated with […] IBMX and 20 nM CNP in serum-free DMEM prior to measuring cGMP levels. The cGMP catchpoint ELISA competition assay (Molecular Devices) was used to measure cGMP according to manufacturer recommendations. RedLuc was used as a transfection control (FIG. 8A).
The NPR2 alpha-fold structure was obtained from a recent alpha-fold publication (Jumper et al., Nature 596:583-589 (2021)). A list of phenotypically characterized “high-confidence” variants was generated (Table 4). Phenotype is calculated by determining levels of cGMP using a standard curve. This value to normalized to RedLuciferase (transfection control). This value is further normalized by setting WT to 1. Average value is calculated from at least 3 repeat experiments with 4 replicates each.

Molecule	average phenotype	Lable
Arg957Cys: NPR2 protein-altering variant, expression construct transfected into HEK293 cells (protein) RNLTLAVVLPEHNLSYAWAWPRVGPAVALAVEALGRALPVDLRFVSSELEGACSEYLAPLSAVDLKLYHDPDLLLGPGCVYPAASVARFASHWRLPLLTAGAVASGFSAKNDHYRTLVRTGPSAPKLGEFVVTLHGHFNWTARAALLYLDARTDDRPHYFTIEGVFEALQGSNLSVQHQVYAREPGGPEQATHFIRANGRIVYICGPLEMLHEILLQAQRENLTNGDYVFFYLDVFGESLRAGPTRATGRPWQDNRTREQAQALREAFQTVLVITYREPPNPEYQEFQNRLLIRAREDFGVELGPSLMNLIAGCFYDGILLYAEVLNETIQEGGTREDGLRIVEKMQGRRYHGVTGLVVMDKNNDRETDFVLWAMGDLDSGDFQPAAHYSGAEKQIWWTGRPIPWVKGAPPSDNPPCAFDLDDPSCDKTPLSTLAIVALGTGITFIMFGVSSFLIFRKLMLEKELASMLWRIRWEELQFGNSERYHKGAGSRLTLSLRGSSYGSLMTAHGKYQIFANTGHFKGNVVAIKHVNKKRIELTRQVLFELKHMRDVQFNHLTRFIGACIDPPNICIVTEYCPRGSLQDILENDSINLDWMFRYSLINDLVKGMAFLHNSIISSHGSLKSSNCVVDSRFVLKITDYGLASFRSTAEPDDSHALYAKKLWTAPELLSGNPLPTTGMQKADVYSFGIILQEIALRSGPFYLEGLDLSPKEIVQKVRNGQRPYFRPSIDRTQLNEELVLLMERCWAQDPAERPDFGQIKGFIRRFNKEGGTSILDNLLLRMEQYANNLEKLVEERTQAYLEEKRKAEALLYQILPHSVAEQLKRGETVQAEAFDSVTIYFSDIVGFTALSAESTPMQVVTLLNDLYTCFDAIIDNFDVYKVETIGDAYMVVSGLPGRNGQRHAPEIARMALALLDAVSSFRIRHRPHDQLRLCIGVHTGPVCAGVVGLKMPRYCLFGDTVNTASRMESNGQALKIHVSSTTKDALDELGCFQLELRGDVEMKGKGKMRTYWLLGERKGPPGLL	0.01553 and 0.02954	LoF
Val965Asp: NPR2 protein-altering variant, expression construct transfected into HEK293 cells (protein) RNLTLAVVLPEHNLSYAWAWPRVGPAVALAVEALGRALPVDLRFVSSELEGACSEYLAPLSAVDLKLYHDPDLLLGPGCVYPAASVARFASHWRLPLLTAGAVASGFSAKNDHYRTLVRTGPSAPKLGEFVVTLHGHFNWTARAALLYLDARTDDRPHYFTIEGVFEALQGSNLSVQHQVYAREPGGPEQATHFIRANGRIVYICGPLEMLHEILLQAQRENLTNGDYVFFYLDVFGESLRAGPTRATGRPWQDNRTREQAQALREAFQTVLVITYREPPNPEYQEFQNRLLIRAREDFGVELGPSLMNLIAGCFYDGILLYAEVLNETIQEGGTREDGLRIVEKMQGRRYHGVTGLVVMDKNNDRETDFVLWAMGDLDSGDFQPAAHYSGAEKQIWWTGRPIPWVKGAPPSDNPPCAFDLDDPSCDKTPLSTLAIVALGTGITFIMFGVSSFLIFRKLMLEKELASMLWRIRWEELQFGNSERYHKGAGSRLTLSLRGSSYGSLMTAHGKYQIFANTGHFKGNVVAIKHVNKKRIELTRQVLFELKHMRDVQFNHLTRFIGACIDPPNICIVTEYCPRGSLQDILENDSINLDWMFRYSLINDLVKGMAFLHNSIISSHGSLKSSNCVVDSRFVLKITDYGLASFRSTAEPDDSHALYAKKLWTAPELLSGNPLPTTGMQKADVYSFGIILQEIALRSGPFYLEGLDLSPKEIVQKVRNGQRPYFRPSIDRTQLNEELVLLMERCWAQDPAERPDFGQIKGFIRRFNKEGGTSILDNLLLRMEQYANNLEKLVEERTQAYLEEKRKAEALLYQILPHSVAEQLKRGETVQAEAFDSVTIYFSDIVGFTALSAESTPMQVVTLLNDLYTCFDAIIDNFDVYKVETIGDAYMVVSGLPGRNGQRHAPEIARMALALLDAVSSFRIRHRPHDQLRLRIGVHTGPDCAGVVGLKMPRYCLFGDTVNTASRMESNGQALKIHVSSTTKDALDELGCFQLELRGDVEMKGKGKMRTYWLLGERKGPPGLL	0.0158	LoF
Gly917Arg: NPR2 protein-altering variant, expression construct transfected into HEK293 cells (protein) RNLTLAVVLPEHNLSYAWAWPRVGPAVALAVEALGRALPVDLRFVSSELEGACSEYLAPLSAVDLKLYHDPDLLLGPGCVYPAASVARFASHWRLPLLTAGAVASGFSAKNDHYRTLVRTGPSAPKLGEFVVTLHGHFNWTARAALLYLDARTDDRPHYFTIEGVFEALQGSNLSVQHQVYAREPGGPEQATHFIRANGRIVYICGPLEMLHEILLQAQRENLTNGDYVFFYLDVFGESLRAGPTRATGRPWQDNRTREQAQALREAFQTVLVITYREPPNPEYQEFQNRLLIRAREDFGVELGPSLMNLIAGCFYDGILLYAEVLNETIQEGGTREDGLRIVEKMQGRRYHGVTGLVVMDKNNDRETDFVLWAMGDLDSGDFQPAAHYSGAEKQIWWTGRPIPWVKGAPPSDNPPCAFDLDDPSCDKTPLSTLAIVALGTGITFIMFGVSSFLIFRKLMLEKELASMLWRIRWEELQFGNSERYHKGAGSRLTLSLRGSSYGSLMTAHGKYQIFANTGHFKGNVVAIKHVNKKRIELTRQVLFELKHMRDVQFNHLTRFIGACIDPPNICIVTEYCPRGSLQDILENDSINLDWMFRYSLINDLVKGMAFLHNSIISSHGSLKSSNCVVDSRFVLKITDYGLASFRSTAEPDDSHALYAKKLWTAPELLSGNPLPTTGMQKADVYSFGIILQEIALRSGPFYLEGLDLSPKEIVQKVRNGQRPYFRPSIDRTQLNEELVLLMERCWAQDPAERPDFGQIKGFIRRFNKEGGTSILDNLLLRMEQYANNLEKLVEERTQAYLEEKRKAEALLYQILPHSVAEQLKRGETVQAEAFDSVTIYFSDIVGFTALSAESTPMQVVTLLNDLYTCFDAIIDNFDVYKVETIGDAYMVVSRLPGRNGQRHAPEIARMALALLDAVSSFRIRHRPHDQLRLRIGVHTGPVCAGVVGLKMPRYCLFGDTVNTASRMESNGQALKIHVSSTTKDALDELGCFQLELRGDVEMKGKGKMRTYWLLGERKGPPGLL	0.01708	LoF
Leu956Gln: NPR2 protein-altering variant, expression construct transfected into HEK293 cells (protein) RNLTLAVVLPEHNLSYAWAWPRVGPAVALAVEALGRALPVDLRFVSSELEGACSEYLAPLSAVDLKLYHDPDLLLGPGCVYPAASVARFASHWRLPLLTAGAVASGFSAKNDHYRTLVRTGPSAPKLGEFVVTLHGHFNWTARAALLYLDARTDDRPHYFTIEGVFEALQGSNLSVQHQVYAREPGGPEQATHFIRANGRIVYICGPLEMLHEILLQAQRENLTNGDYVFFYLDVFGESLRAGPTRATGRPWQDNRTREQAQALREAFQTVLVITYREPPNPEYQEFQNRLLIRAREDFGVELGPSLMNLIAGCFYDGILLYAEVLNETIQEGGTREDGLRIVEKMQGRRYHGVTGLVVMDKNNDRETDFVLWAMGDLDSGDFQPAAHYSGAEKQIWWTGRPIPWVKGAPPSDNPPCAFDLDDPSCDKTPLSTLAIVALGTGITFIMFGVSSFLIFRKLMLEKELASMLWRIRWEELQFGNSERYHKGAGSRLTLSLRGSSYGSLMTAHGKYQIFANTGHFKGNVVAIKHVNKKRIELTRQVLFELKHMRDVQFNHLTRFIGACIDPPNICIVTEYCPRGSLQDILENDSINLDWMFRYSLINDLVKGMAFLHNSIISSHGSLKSSNCVVDSRFVLKITDYGLASFRSTAEPDDSHALYAKKLWTAPELLSGNPLPTTGMQKADVYSFGIILQEIALRSGPFYLEGLDLSPKEIVQKVRNGQRPYFRPSIDRTQLNEELVLLMERCWAQDPAERPDFGQIKGFIRRFNKEGGTSILDNLLLRMEQYANNLEKLVEERTQAYLEEKRKAEALLYQILPHSVAEQLKRGETVQAEAFDSVTIYFSDIVGFTALSAESTPMQVVTLLNDLYTCFDAIIDNFDVYKVETIGDAYMVVSGLPGRNGQRHAPEIARMALALLDAVSSFRIRHRPHDQLRQRIGVHTGPVCAGVVGLKMPRYCLFGDTVNTASRMESNGQALKIHVSSTTKDALDELGCFQLELRGDVEMKGKGKMRTYWLLGERKGPPGLL	0.02434	LoF
